Data as given in publication PMC12808100 (Nature Communications, 2025).
One block for each binder: values may come before it. *: point of attachment. carboxyfluorescein = carboxyfluorescein on the N-terminus (no linker); Biotin = O=C1N[C@H]2[C@H](CS[C@H]2CCCCC(=O)*)N1; TTDS = Trioxatridecan-succinamic acid linker

What was measured:
HA-POLE2 = target: T1, HA-POLE2 (human, UniProt P56282 1-527); assay: native holdup (nHU) titration with dot blot; DONSON_71-88-saturated streptavidin resin mixed with control resin at various proportions; extracts of HEK293T cells expressing HA-tagged POLE2 variants; 4 °C, 2 h; depletion quantified with an antibody against the HA tag; apparent; conditions: one partner purified
T1 construct: POLE2, residues 1-527; also called HA-POLE2 wild type; source: HEK293T, transfected, in cell extract; not shown: HA, N-terminal, kept

[1] = target: T2, His6-AviTag-MBP-TEV-POLE2 (human, UniProt P56282 1-527, biotin on the AviTag (BirA co-expressed, biotin in the medium)); assay: fluorescence polarisation; competitive; dilution series of the non-fluorescent DONSON peptide added to 50 nM fluoDONSON and 3.85 μM POLE2 protein; same buffer as the direct experiment; conditions: both partners purified
T2 construct: POLE2, residues 1-527; a TEV site lies between MBP and POLE2; also called His6-avi-MBP-tagged POLE2; avi-His6-MBP-POLE2; source: E. coli BL21(DE3), co-expressed with BirA, purified (HisTrap, MBPtrap, Q HP); not shown: His6, N-terminal, kept; AviTag, N-terminal, kept; MBP, N-terminal, kept

EPS15 = target: T3, EPS15 (human (endogenous in Jurkat), UniProt P42566 1-896); assay: native holdup (nHU) titration with western blot; biotinylated peptide bait on streptavidin resin, bait-saturated and control (biotin) resin mixed at various proportions; total Jurkat extract as analyte; 4 °C, 2 h; endogenous POLE and EPS15 left in the supernatant quantified by western blot; apparent dissociation constants; conditions: one partner purified
T3 construct: EPS15, EH protein with three EH domains, endogenous in Jurkat E6.1 extract, detected by western blot with an EPS15 antibody; also called endogenous EPS15; EH protein with three EH domains; source: endogenous, total Jurkat extract
T3 sequence (looked up): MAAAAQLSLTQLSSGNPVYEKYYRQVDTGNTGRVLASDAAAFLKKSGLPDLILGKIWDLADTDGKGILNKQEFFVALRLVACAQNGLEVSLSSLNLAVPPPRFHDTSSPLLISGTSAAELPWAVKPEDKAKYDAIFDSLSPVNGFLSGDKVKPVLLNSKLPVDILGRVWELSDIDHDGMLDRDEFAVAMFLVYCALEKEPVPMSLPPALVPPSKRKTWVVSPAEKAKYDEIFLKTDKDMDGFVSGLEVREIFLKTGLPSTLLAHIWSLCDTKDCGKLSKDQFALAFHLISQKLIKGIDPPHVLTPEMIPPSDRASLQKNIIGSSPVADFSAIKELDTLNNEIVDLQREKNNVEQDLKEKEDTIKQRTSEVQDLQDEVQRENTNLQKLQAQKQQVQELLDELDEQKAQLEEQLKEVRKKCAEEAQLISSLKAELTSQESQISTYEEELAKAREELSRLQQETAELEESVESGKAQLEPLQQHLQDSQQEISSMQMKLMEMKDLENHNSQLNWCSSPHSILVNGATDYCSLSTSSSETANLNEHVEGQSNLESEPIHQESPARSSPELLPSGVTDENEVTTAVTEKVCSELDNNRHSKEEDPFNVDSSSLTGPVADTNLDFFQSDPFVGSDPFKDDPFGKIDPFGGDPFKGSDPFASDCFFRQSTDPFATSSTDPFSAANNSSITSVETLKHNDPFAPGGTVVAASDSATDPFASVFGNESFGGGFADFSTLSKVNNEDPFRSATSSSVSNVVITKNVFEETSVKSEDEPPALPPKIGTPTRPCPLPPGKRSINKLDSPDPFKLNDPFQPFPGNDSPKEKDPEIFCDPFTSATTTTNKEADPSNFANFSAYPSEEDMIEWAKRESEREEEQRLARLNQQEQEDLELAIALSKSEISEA

[2] = target: T2, His6-AviTag-MBP-TEV-POLE2; assay: native holdup (nHU) titration with dot blot; purified His6-avi-MBP-tagged POLE2 as bait on resin; extracts of HEK293T cells transfected with HA-tagged full length proteins; 4 °C, 2 h; anti-HA dot blot; apparent; conditions: one partner purified
[3] = target: T2, His6-AviTag-MBP-TEV-POLE2; assay: fluorescence polarisation; direct; dilution series of MBP-POLE2 added to 50 nM fluoDONSON peptide; 20 mM Hepes pH 7.5, 150 mM NaCl, 0.5 mM TCEP, 0.01% Tween 20; conditions: both partners purified

T2 sequence (P56282 whole entry, the tested form may be a part): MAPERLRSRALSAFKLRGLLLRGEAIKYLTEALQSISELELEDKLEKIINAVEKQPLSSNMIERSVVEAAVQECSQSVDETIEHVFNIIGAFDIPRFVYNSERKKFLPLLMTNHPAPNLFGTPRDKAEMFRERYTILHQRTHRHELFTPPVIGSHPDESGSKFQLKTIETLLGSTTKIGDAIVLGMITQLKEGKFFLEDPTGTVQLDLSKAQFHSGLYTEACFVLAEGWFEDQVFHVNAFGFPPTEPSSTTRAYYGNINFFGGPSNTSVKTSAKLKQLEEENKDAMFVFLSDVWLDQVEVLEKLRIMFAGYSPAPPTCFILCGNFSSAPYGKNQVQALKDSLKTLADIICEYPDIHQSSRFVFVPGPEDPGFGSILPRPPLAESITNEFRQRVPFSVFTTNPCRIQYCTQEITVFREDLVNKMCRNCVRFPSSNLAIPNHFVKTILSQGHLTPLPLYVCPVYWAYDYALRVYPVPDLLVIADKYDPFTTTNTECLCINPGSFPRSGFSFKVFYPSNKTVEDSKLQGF
T1 sequence (P56282 whole entry, the tested form may be a part): as above

- Kd (HA-POLE2): 0.28 µM
- Kd [1]: 13 µM
B1: NPF motif peptide of DONSON (residues 71-88) (peptide)
peptide: {Biotin-TTDS}-GPAAARRNPFARLDNRPR-NH2
notes: Protein downstream neighbor of Son (DONSON), residues 71-88; also called DONSON_71-88; DONSON NPF motif; source: synthetic peptide (ABI 443 A synthesizer, Fmoc), HPLC purified

- Kd (EPS15): > 200 µM
B2: DONSON-SYNJ1 chimera peptide, both flanks replaced (peptide)
chain: GPAATRTNPFSDRDNRPR
HELM: PEPTIDE1{[O=C1N[C@H]2[C@H](CS[C@H]2CCCCC(=O)[*:2])N1].[O=C(CCCCCN[*:1])[*:2]].G.P.A.A.T.R.T.N.P.F.S.D.R.D.N.R.P.R.[am]}$$$$V2.0
SMILES: C[C@H](NC(=O)[C@H](C)NC(=O)[C@@H]1CCCN1C(=O)CNC(=O)CCCCCNC(=O)CCCC[C@@H]1SC[C@@H]2NC(=O)N[C@@H]21)C(=O)N[C@H](C(=O)N[C@@H](CCCNC(=N)N)C(=O)N[C@H](C(=O)N[C@@H](CC(N)=O)C(=O)N1CCC[C@H]1C(=O)N[C@@H](Cc1ccccc1)C(=O)N[C@@H](CO)C(=O)N[C@@H](CC(=O)O)C(=O)N[C@@H](CCCNC(=N)N)C(=O)N[C@@H](CC(=O)O)C(=O)N[C@@H](CC(N)=O)C(=O)N[C@@H](CCCNC(=N)N)C(=O)N1CCC[C@H]1C(=O)N[C@@H](CCCNC(=N)N)C(N)=O)[C@@H](C)O)[C@@H](C)O

- fold weaker affinity than the wild type [2]: 10 fold
B3: HA-ERCC6L, full length, NPF motif mutated to KAF (natural protein, human, UniProt Q2NKX8 1-1250, looked up)
chain: MEASRRFPEAEALSPEQAAHYLRYVKEAKEATKNGDLEEAFKLFNLAKDIFPNEKVLSRIQKIQEALEELAEQGDDEFTDVCNSGLLLYRELHNQLFEHQKEGIAFLYSLYRDGRKGGILADDMGLGKTVQIIAFLSGMFDASLVNHVLLIMPTNLINTWVKEFIKWTPGMRVKTFHGPSKDERTRNLNRIQQRNGVIITTYQMLINNWQQLSSFRGQEFVWDYVILDEAHKIKTSSTKSAICARAIPASNRLLLTGTPIQNNLQELWSLFDFACQGSLLGTLKTFKMEYENPITRAREKDATPGEKALGFKISENLMAIIKPYFLRRTKEDVQKKKSSNPEARLNEKNPDVDAICEMPSLSRKNDLIIWIRLVPLQEEIYRKFVSLDHIKELLMETRSPLAELGVLKKLCDHPRLLSARACCLLNLGTFSAQDGNEGEDSPDVDHIDQVTDDTLMEESGKMIFLMDLLKRLRDEGHQTLVFSQSRQILNIIERLLKNRHFKTLRIDGTVTHLLEREKRINLFQQNKDYSVFLLTTQVGGVGLTLTAATRVVIFDPSWNPATDAQAVDRVYRIGQKENVVVYRLITCGTVEEKIYRRQVFKDSLIRQTTGEKKNPFRYFSKQELRELFTIEDLQNSVTQLQLQSLHAAQRKSDIKLDEHIAYLQSLGIAGISDHDLMYTCDLSVKEELDVVEESHYIQQRVQKAQFLVEFESQNKEFLMEQQRTRNEGAWLREPVFPSSTKKKCPKLNKPQPQPSPLLSTHHTQEEDISSKMASVVIDDLPKEGEKQDLSSIKVNVTTLQDGKGTGSADSIATLPKGFGSVEELCTNSSLGMEKSFATKNEAVQKETLQEGPKQEALQEDPLESFNYVLSKSTKADIGPNLDQLKDDEILRHCNPWPIISITNESQNAESNVSIIEIADDLSASHSALQDAQASEAKLEEEPSASSPQYACDFNLFLEDSADNRQNFSSQSLEHVEKENSLCGSAPNSRAGFVHSKTCLSWEFSEKDDEPEEVVVKAKIRSKARRIVSDGEDEDDSFKDTSSIKAFNTSLFQFSSVKQFDASTPKNDISPPGRFFSSQIPSSVNKSMNSRRSLASRRSLINMVLDHVEDMEERLDDSSEAKGPEDYPEEGVEESSGEASKYTEEDPSGETLSSENKSSWLMTSKPSALAQETSLGAPEPLSGEQLVGSPQDKAAEATNDYETLVKRGKELKECGKIQEALNCLVKALDIKSADPEVMLLTLSLYKQLNNN
notes: ERCC6L, residues 1-1250; also called mutated version of ERCC6L; source: HEK293T, transfected, in cell extract; not shown: HA, N-terminal, kept

- fold weaker affinity than the wild type [2]: 1000 fold
B4: HA-WDHD1, full length, NPF motif mutated to KAF (natural protein, human, UniProt O75717 1-1129, looked up)
chain: MPATRKPMRYGHTEGHTEVCFDDSGSFIVTCGSDGDVRIWEDLDDDDPKFINVGEKAYSCALKSGKLVTAVSNNTIQVHTFPEGVPDGILTRFTTNANHVVFNGDGTKIAAGSSDFLVKIVDVMDSSQQKTFRGHDAPVLSLSFDPKDIFLASASCDGSVRVWQISDQTCAISWPLLQKCNDVINAKSICRLAWQPKSGKLLAIPVEKSVKLYRRESWSHQFDLSDNFISQTLNIVTWSPCGQYLAAGSINGLIIVWNVETKDCMERVKHEKGYAICGLAWHPTCGRISYTDAEGNLGLLENVCDPSGKTSSSKVSSRVEKDYNDLFDGDDMSNAGDFLNDNAVEIPSFSKGIINDDEDDEDLMMASGRPRQRSHILEDDENSVDISMLKTGSSLLKEEEEDGQEGSIHNLPLVTSQRPFYDGPMPTPRQKPFQSGSTPLHLTHRFMVWNSIGIIRCYNDEQDNAIDVEFHDTSIHHATHLSNTLNYTIADLSHEAILLACESTDELASKLHCLHFSSWDSSKEWIIDLPQNEDIEAICLGQGWAAAATSALLLRLFTIGGVQKEVFSLAGPVVSMAGHGEQLFIVYHRGTGFDGDQCLGVQLLELGKKKKQILHGDPLPLTRKSYLAWIGFSAEGTPCYVDSEGIVRMLNRGLGNTWTPICNTREHCKGKSDHYWVVGIHENPQQLRCIPCKGSRFPPTLPRPAVAILSFKLPYCQIATEKGQMEEQFWRSVIFHNHLDYLAKNGYEYEESTKNQATKEQQELLMKMLALSCKLEREFRCVELADLMTQNAVNLAIKYASRSRKLILAQKLSELAVEKAAELTATQVEEEEEEEDFRKKLNAGYSNTATEWSQPRFRNQVEEDAEDSGEADDEEKPEIHKPGQNSFSKSTNSSDVSAKSGAVTFSSQGRVKAFKVSASSKEPAMSMNSARSTNILDNMGKSSKKSTALSRTTNNEKSPIIKPLIPKPKPKQASAASYFQKRNSQTNKTEEVKEENLKNVLSETPAICPPQNTENQRPKTGFQMWLEENRSNILSDNPDFSDEADIIKEGMIRFRVLSTEERKVWANKAKGETASEGTEAKKRKRVVDESDETENQEEKAKENLNLSKKQKPLDFSTNQKLSAFAFKQE
notes: WDHD1, residues 1-1129; also called WDHD1 mutant; source: HEK293T, transfected, in cell extract; not shown: HA, N-terminal, kept

- Kd [3]: 16 µM
B5: fluoDONSON peptide (residues 71-88) (peptide)
peptide: carboxyfluorescein-GPAAARRNPFARLDNRPR-NH2
notes: DONSON, residues 71-88; also called fluorescein-labeled DONSON_71-88 peptide; fluorescent NPF motif peptide; source: synthetic peptide, HPLC purified

- fold weaker affinity than the wild type [2]: ~4 fold
B6: HA-TTF2, full length, N-terminal NPF motif mutated to KAF (natural protein, human, UniProt Q9UNY4 1-1162, looked up)
chain: MEEVRCPEHGTFCFLKTGVRDGPNKGKSFYVCRADTCSFVRATDIPVSHCLLHEDFVVELQGLLLPQDKKEYRLFFRCIRSKAEGKRWCGSIPWQDPDSKEHSVSNKSQHASETFHHSSNWLRKAFKVLDKNQEPALWKQLIKGEGEEKKADKKQREKGDQLFDQKKEQKPEMMEKDLSSGLVPKKKQSVVQEKKQEEGAEIQCEAETGGTHKRDFSEIKSQQCQGNELTRPSASSQEKSSGKSQDVQRESEPLREKVTQLLPQNVHSHNSISKPQKGGPLNKEYTNWEAKETKAKDGPSIQATQKSLPQGHFQERPETHSVPAPGGPAAQAAPAAPGLSLGEGREAATSSDDEEEDDVVFVSSKPGSPLLFDSTLDLETKENLQFPDRSVQRKVSPASGVSKKVEPSDPVARRVYLTTQLKQKKSTLASVNIQALPDKGQKLIKQIQELEEVLSGLTLSPEQGTNEKSNSQVPQQSHFTKTTTGPPHLVPPQPLPRRGTQPVGSLELKSACQVTAGGSSQCYRGHTNQDHVHAVWKITSEAIGQLHRSLESCPGETVVAEDPAGLKVPLLLHQKQALAWLLWRESQKPQGGILADDMGLGKTLTMIALILTQKNQEKKEEKEKSTALTWLSKDDSCDFTSHGTLIICPASLIHHWKNEVEKRVNSNKLRVYLYHGPNRDSRARVLSTYDIVITTYSLVAKEIPTNKQEAEIPGANLNVEGTSTPLLRIAWARIILDEAHNVKNPRVQTSIAVCKLQACARWAVTGTPIQNNLLDMYSLLKFLRCSPFDEFNLWRSQVDNGSKKGGERLSILTKSLLLRRTKDQLDSTGRPLVILPQRKFQLHHLKLSEDEETVYNVFFARSRSALQSYLKRHESRGNQSGRSPNNPFSRVALEFGSEEPRHSEAADSPRSSTVHILSQLLRLRQCCCHLSLLKSALDPMELKGEGLVLSLEEQLSALTLSELRDSEPSSTVSLNGTFFKMELFEGMRESTKISSLLAELEAIQRNSASQKSVIVSQWTNMLKVVALHLKKHGLTYATIDGSVNPKQRMDLVEAFNHSRGPQVMLISLLAGGVGLNLTGGNHLFLLDMHWNPSLEDQACDRIYRVGQQKDVVIHRFVCEGTVEEKILQLQEKKKDLAKQVLSGSGESVTKLTLADLRVLFGI
notes: TTF2, residues 1-1162; only the N-terminal NPF motif mutated; also called TTF2 mutant; source: HEK293T, transfected, in cell extract; not shown: HA, N-terminal, kept
